PMC3545106 (Structure (London, England : 1993), 2012)
Square brackets hold non-standard residues; d marks the D form. Ends that are not written are not given here. pT = C[C@@H](OP(=O)(O)O)[C@H](N)C(=O)O

T1: AF4 peptide phosphorylated at T766
T1 chain: LMVKI[pT]LDLLSRIP

T2: AF9 ANC1 Homology Domain (AHD), residues 490-568 (UniProt P42568 490-568)
T2 sequence (looked up): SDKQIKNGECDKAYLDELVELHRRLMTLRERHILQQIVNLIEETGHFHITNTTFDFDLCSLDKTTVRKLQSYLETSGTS


Assays:
[1] = biological target: AF4 peptide of the fluorescence anisotropy experiments; assay: fluorescence polarisation
[2] = biological target: BCoR peptide of the fluorescence anisotropy experiments; assay: fluorescence polarisation
[3] = biological target: T1, AF4 peptide phosphorylated at T766; assay: fluorescence polarisation
[4] = biological target: T2, AF9 ANC1 Homology Domain (AHD), …; assay: NMR titration

| Binder | Kd [1] | Kd [2] | fold reduction of affinity against the unphosphorylated AF4 peptide [3] | binding result [4] |
| --- | --- | --- | --- | --- |
| MBP-AF9 (mouse AF9 residues 475-568 fused to the Maltose Binding Protein) (domain or fragment, UniProt A2AM29 475-568, looked up) NNNQILEVKSPIKQSKSDKQIKNGECDKAYLDELVELHRRLMTLRERHILQQIVNLIEETGHFHITNTTFDFDLCSLDKTTVRKLQSYLETSGT | 0.17 nM | 32 nM | ~30 fold |  |
| LMVKITLDLLSRIP (peptide, UniProt P51825 761-774, looked up) [AF4 peptide, residues 761-774 (AF9 interaction motif of AF4)] |  |  |  | binds |
